Reference: publication PMC9598480
“And” between values parts separate entries of the source, which are not always exact repeats. Identical values can stand only once.

Key:
[1] = target: recombinant Fasciola hepatica cytosolic Cu/Zn superoxide dismutase (rFhSOD1) (Fasciola hepatica); assay: SEC; Superdex 75 10/300 GL column, 400 uL/min, eluted into 1x PBS; standards conalbumin (76 kDa), carbonic anhydrase (29 kDa), aprotinin (6.5 kDa)
[2] = target: recombinant Fasciola hepatica extracellular Cu/Zn superoxide dismutase (rFhSOD3), signal peptide removed (Fasciola hepatica); assay: as above

recombinant Fasciola hepatica cytosolic Cu/Zn superoxide dismutase (rFhSOD1) (enzyme)
stoichiometry N [1]: 2

recombinant Fasciola hepatica extracellular Cu/Zn superoxide dismutase (rFhSOD3), signal peptide removed (enzyme)
stoichiometry N [2]: 2 and 4
